According to IntAct's records for PubMed 22913516:

Molecular target: kcc2b_mouse Camk2b (UniProt P28652)
Sequence (P28652 whole entry): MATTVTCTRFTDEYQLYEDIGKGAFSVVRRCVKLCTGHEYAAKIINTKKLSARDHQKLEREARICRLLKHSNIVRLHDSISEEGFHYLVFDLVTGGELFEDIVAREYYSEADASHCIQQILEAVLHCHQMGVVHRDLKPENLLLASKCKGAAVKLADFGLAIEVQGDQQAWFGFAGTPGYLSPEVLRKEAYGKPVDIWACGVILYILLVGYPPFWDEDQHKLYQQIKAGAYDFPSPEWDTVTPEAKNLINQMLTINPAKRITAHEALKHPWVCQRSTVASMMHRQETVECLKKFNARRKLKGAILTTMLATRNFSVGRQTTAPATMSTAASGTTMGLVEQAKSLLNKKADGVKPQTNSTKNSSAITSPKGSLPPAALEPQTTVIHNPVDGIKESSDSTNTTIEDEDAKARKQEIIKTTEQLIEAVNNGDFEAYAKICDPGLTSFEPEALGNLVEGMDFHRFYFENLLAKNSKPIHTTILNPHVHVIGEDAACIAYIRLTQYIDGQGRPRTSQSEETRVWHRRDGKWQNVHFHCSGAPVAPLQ

In the case of “Ryanodine receptor 1 (Oryctolagus cuniculus (Rabbit)), P11716 S2843A”, the “effect of a mutation on the interaction” value is reported as “decreasing interaction”.
